US20190092819A1 (published 2019)

Legend:
[1] = target: Desmoglein 2 (DSG2) on cells (human) (UniProt Q14126); experiment: cell-based or functional assay
[2] = target: Desmoglein 2 (DSG2) on cells (human) (UniProt Q14126); experiment: competition: attachment of 3H-labelled Ad3 virus (competitor) to HeLa cells after pre-incubation with dimeric knob; scintillation counting
soluble CD46 = target: T1, soluble CD46 (UniProt P15529 35-343, limits assumed); experiment: Western blot probed with soluble CD46 and anti-CD46 mAb
T1 construct: also called sCD46
T1 sequence (looked up): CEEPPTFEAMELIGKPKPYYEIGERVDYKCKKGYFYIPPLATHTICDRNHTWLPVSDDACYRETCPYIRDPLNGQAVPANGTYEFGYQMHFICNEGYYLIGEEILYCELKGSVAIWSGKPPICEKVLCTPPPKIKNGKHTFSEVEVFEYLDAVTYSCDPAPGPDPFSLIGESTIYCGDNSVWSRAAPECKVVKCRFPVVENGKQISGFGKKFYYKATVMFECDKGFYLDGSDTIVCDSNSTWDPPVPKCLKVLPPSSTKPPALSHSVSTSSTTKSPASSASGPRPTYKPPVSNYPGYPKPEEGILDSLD

[3] = target: T2, Desmoglein 2 (DSG2) on cells (human, UniProt Q14126 50-1118); experiment: cell-based or functional assay
T2 sequence (looked up): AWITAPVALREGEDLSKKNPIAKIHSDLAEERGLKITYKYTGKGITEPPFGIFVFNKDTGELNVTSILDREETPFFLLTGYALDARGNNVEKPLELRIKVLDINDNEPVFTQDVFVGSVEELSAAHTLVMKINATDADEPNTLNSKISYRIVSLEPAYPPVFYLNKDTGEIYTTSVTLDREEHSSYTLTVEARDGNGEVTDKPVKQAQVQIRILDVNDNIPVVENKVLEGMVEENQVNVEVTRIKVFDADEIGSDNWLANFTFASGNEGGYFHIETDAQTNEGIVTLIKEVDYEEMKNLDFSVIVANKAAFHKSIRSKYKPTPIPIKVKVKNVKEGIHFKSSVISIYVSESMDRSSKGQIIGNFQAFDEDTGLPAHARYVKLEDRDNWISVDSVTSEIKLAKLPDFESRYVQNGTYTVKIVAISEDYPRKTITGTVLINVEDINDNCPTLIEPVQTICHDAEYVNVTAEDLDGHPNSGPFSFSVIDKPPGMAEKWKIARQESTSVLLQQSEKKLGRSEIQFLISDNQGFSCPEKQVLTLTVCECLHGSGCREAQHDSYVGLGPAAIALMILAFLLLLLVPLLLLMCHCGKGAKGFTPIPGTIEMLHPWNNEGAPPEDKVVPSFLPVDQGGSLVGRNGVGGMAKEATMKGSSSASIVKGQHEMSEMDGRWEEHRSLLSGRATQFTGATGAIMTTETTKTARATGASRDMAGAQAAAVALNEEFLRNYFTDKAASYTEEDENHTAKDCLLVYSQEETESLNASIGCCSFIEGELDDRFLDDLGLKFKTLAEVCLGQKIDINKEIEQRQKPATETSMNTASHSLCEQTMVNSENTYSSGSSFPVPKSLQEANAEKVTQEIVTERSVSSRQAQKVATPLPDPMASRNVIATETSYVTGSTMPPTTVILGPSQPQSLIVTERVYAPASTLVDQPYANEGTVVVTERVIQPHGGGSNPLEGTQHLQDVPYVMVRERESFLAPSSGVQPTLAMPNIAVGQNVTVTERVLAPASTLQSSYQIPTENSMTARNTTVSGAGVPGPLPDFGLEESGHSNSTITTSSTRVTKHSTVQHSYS

[4] = target: T2, Desmoglein 2 (DSG2) on cells; experiment: competition: attachment of 3H-labelled Ad3 virus (competitor) to HeLa cells after pre-incubation with dimeric knob; scintillation counting
[5] = target: Recombinant human DSG2 protein (desmoglein 2), soluble (human) (UniProt Q14126); experiment: Western blot of purified dimeric knob (trimer band) probed with soluble recombinant DSG2, anti-DSG2 mAb and anti-mouse IgG-HRP; bands quantified

## dimeric Ad3 fiber knob mutant N186D, D261N, L296R (ligand)
[1]
  Inhibition of infection in the presence of dimeric knob (JO-1 = 100%) (% (JO-1 = 100%)): 0
[2]
  Inhibition of attachment in the presence of dimeric knob (JO-1 = 100%) (% (JO-1 = 100%)): 18.5

B1: Ad3-S4/Kn (ligand, human adenovirus serotype 3, UniProt P04501 77-319, looked up)
chain: SLEENIKVNTPLTKSNHSINLPIGNGLQIEQNKLCSKLGNGLTFDSSNSIALKNNTLWTGPKPEANCIIEYGKQNPDSKLTLILVKNGGIVNGYVTLMGASDYVNTLFKNKNVSINVELYFDATGHILPDSSSLKTDLELKYKQTADFSARGFMPSTTAYPFVLPNAGTHNENYIFGQCYYKASDGALFPLEVTVMLNKRLPDSRTSYVMTFLWSLNAGLAPETTQATLITSPFTFSYIREDD
notes: domain: fiber knob with shaft motifs (S4)
Soluble CD46
  binding result: no binding

B2: Ad3-S3/Kn (ligand, human adenovirus serotype 3, UniProt P04501 94-319, looked up)
chain: SINLPIGNGLQIEQNKLCSKLGNGLTFDSSNSIALKNNTLWTGPKPEANCIIEYGKQNPDSKLTLILVKNGGIVNGYVTLMGASDYVNTLFKNKNVSINVELYFDATGHILPDSSSLKTDLELKYKQTADFSARGFMPSTTAYPFVLPNAGTHNENYIFGQCYYKASDGALFPLEVTVMLNKRLPDSRTSYVMTFLWSLNAGLAPETTQATLITSPFTFSYIREDD
notes: domain: fiber knob with shaft motifs (S3)
Soluble CD46
  binding result: no binding

B3: Ad3-S2/Kn (ligand, human adenovirus serotype 3, UniProt P04501 108-319, looked up)
chain: NKLCSKLGNGLTFDSSNSIALKNNTLWTGPKPEANCIIEYGKQNPDSKLTLILVKNGGIVNGYVTLMGASDYVNTLFKNKNVSINVELYFDATGHILPDSSSLKTDLELKYKQTADFSARGFMPSTTAYPFVLPNAGTHNENYIFGQCYYKASDGALFPLEVTVMLNKRLPDSRTSYVMTFLWSLNAGLAPETTQATLITSPFTFSYIREDD
notes: domain: fiber knob with shaft motifs (S2)
Soluble CD46
  binding result: no binding

B4: dimeric Ad3 fiber knob mutant D261N (ligand)
chain: MKVSALKEKVSALKEKVSALKEKVSALKEKVSALKEGSGGGSGGGSGGGSNSIALKNNTLWTGPKPEANCIIEYGKQNPDSKLTLILVKNGGIVNGYVTLMGASDYVNTLFKNKNVSINVELYFDATGHILPDSSSLKTDLELKYKQTADFSARGFMPSTTAYPFVLPNAGTHNENYIFGQCYYKASNGALFPLEVTVMLNKRLPDSRTSYVMTFLWSLNAGLAPETTQATLITSPFTFSYIREDD
[1]
  Inhibition of infection in the presence of dimeric knob (JO-1 = 100%) (% (JO-1 = 100%)): 5.3
[2]
  Inhibition of attachment in the presence of dimeric knob (JO-1 = 100%) (% (JO-1 = 100%)): 45

B5: dimeric Ad3 fiber knob mutant N186D (ligand)
chain: MKVSALKEKVSALKEKVSALKEKVSALKEKVSALKEGSGGGSGGGSGGGSNSIALKNNTLWTGPKPEANCIIEYGKQNPDSKLTLILVKNGGIVNGYVTLMGASDYVNTLFKDKNVSINVELYFDATGHILPDSSSLKTDLELKYKQTADFSARGFMPSTTAYPFVLPNAGTHNENYIFGQCYYKASDGALFPLEVTVMLNKRLPDSRTSYVMTFLWSLNAGLAPETTQATLITSPFTFSYIREDD
notes: Self-dimerizing form (JO-1 format)
[3]
  Inhibition of infection in the presence of dimeric knob (JO-1 = 100%): 32.7 % (JO-1 = 100%)
[4]
  Inhibition of attachment in the presence of dimeric knob (JO-1 = 100%): 56.5 % (JO-1 = 100%)

B6: dimeric Ad3 fiber knob mutant S190P (ligand)
chain: MKVSALKEKVSALKEKVSALKEKVSALKEKVSALKEGSGGGSGGGSGGGSNSIALKNNTLWTGPKPEANCIIEYGKQNPDSKLTLILVKNGGIVNGYVTLMGASDYVNTLFKNKNVPINVELYFDATGHILPDSSSLKTDLELKYKQTADFSARGFMPSTTAYPFVLPNAGTHNENYIFGQCYYKASDGALFPLEVTVMLNKRLPDSRTSYVMTFLWSLNAGLAPETTQATLITSPFTFSYIREDD
notes: JO-1 format; also called 5190P
[3]
  Inhibition of infection in the presence of dimeric knob (JO-1 = 100%): 30.9 % (JO-1 = 100%)
[4]
  Inhibition of attachment in the presence of dimeric knob (JO-1 = 100%): 73.4 % (JO-1 = 100%)

B7: dimeric Ad3 fiber knob mutant V189G (ligand)
chain: MKVSALKEKVSALKEKVSALKEKVSALKEKVSALKEGSGGGSGGGSGGGSNSIALKNNTLWTGPKPEANCIIEYGKQNPDSKLTLILVKNGGIVNGYVTLMGASDYVNTLFKNKNGSINVELYFDATGHILPDSSSLKTDLELKYKQTADFSARGFMPSTTAYPFVLPNAGTHNENYIFGQCYYKASDGALFPLEVTVMLNKRLPDSRTSYVMTFLWSLNAGLAPETTQATLITSPFTFSYIREDD
notes: JO-1 format
[3]
  Inhibition of infection in the presence of dimeric knob (JO-1 = 100%): 54 % (JO-1 = 100%)
[4]
  Inhibition of attachment in the presence of dimeric knob (JO-1 = 100%): 81 % (JO-1 = 100%)

B8: dimeric Ad3 fiber knob mutant N186D, D261N (ligand)
chain: MKVSALKEKVSALKEKVSALKEKVSALKEKVSALKEGSGGGSGGGSGGGSNSIALKNNTLWTGPKPEANCIIEYGKQNPDSKLTLILVKNGGIVNGYVTLMGASDYVNTLFKDKNVSINVELYFDATGHILPDSSSLKTDLELKYKQTADFSARGFMPSTTAYPFVLPNAGTHNENYIFGQCYYKASNGALFPLEVTVMLNKRLPDSRTSYVMTFLWSLNAGLAPETTQATLITSPFTFSYIREDD
notes: JO-1 format; Positions count on the full Ad3 fiber; also called combination of N186D and D261N
[3]
  Inhibition of infection in the presence of dimeric knob (JO-1 = 100%): 5.2 % (JO-1 = 100%)
[5]
  Western blot Residual DSG2 binding (wtAd3 knob = 100%): 7%
[4]
  Inhibition of attachment in the presence of dimeric knob (JO-1 = 100%): 23.5 % (JO-1 = 100%)

B9: dimeric Ad3 fiber knob mutant D261N, L296R (ligand)
chain: MKVSALKEKVSALKEKVSALKEKVSALKEKVSALKEGSGGGSGGGSGGGSNSIALKNNTLWTGPKPEANCIIEYGKQNPDSKLTLILVKNGGIVNGYVTLMGASDYVNTLFKNKNVSINVELYFDATGHILPDSSSLKTDLELKYKQTADFSARGFMPSTTAYPFVLPNAGTHNENYIFGQCYYKASNGALFPLEVTVMLNKRLPDSRTSYVMTFLWSLNAGRAPETTQATLITSPFTFSYIREDD
notes: JO-1 format; Positions count on the full Ad3 fiber; also called combination of D261N and L296R
[3]
  Inhibition of infection in the presence of dimeric knob (JO-1 = 100%): 1.5 % (JO-1 = 100%)
[5]
  Western blot Residual DSG2 binding (wtAd3 knob = 100%): 7%
[4]
  Inhibition of attachment in the presence of dimeric knob (JO-1 = 100%): 20.1 % (JO-1 = 100%)

B10: dimeric Ad3 fiber knob mutant L296R (ligand)
chain: MKVSALKEKVSALKEKVSALKEKVSALKEKVSALKEGSGGGSGGGSGGGSNSIALKNNTLWTGPKPEANCIIEYGKQNPDSKLTLILVKNGGIVNGYVTLMGASDYVNTLFKNKNVSINVELYFDATGHILPDSSSLKTDLELKYKQTADFSARGFMPSTTAYPFVLPNAGTHNENYIFGQCYYKASDGALFPLEVTVMLNKRLPDSRTSYVMTFLWSLNAGRAPETTQATLITSPFTFSYIREDD
notes: JO-1 format
[3]
  Inhibition of infection in the presence of dimeric knob (JO-1 = 100%): 5.1 % (JO-1 = 100%)
[4]
  Inhibition of attachment in the presence of dimeric knob (JO-1 = 100%): 73.7 % (JO-1 = 100%)

B11: dimeric Ad3 fiber knob mutant E299V (ligand)
chain: MKVSALKEKVSALKEKVSALKEKVSALKEKVSALKEGSGGGSGGGSGGGSNSIALKNNTLWTGPKPEANCIIEYGKQNPDSKLTLILVKNGGIVNGYVTLMGASDYVNTLFKNKNVSINVELYFDATGHILPDSSSLKTDLELKYKQTADFSARGFMPSTTAYPFVLPNAGTHNENYIFGQCYYKASDGALFPLEVTVMLNKRLPDSRTSYVMTFLWSLNAGLAPVTTQATLITSPFTFSYIREDD
notes: JO-1 format
[3]
  Inhibition of infection in the presence of dimeric knob (JO-1 = 100%): 50.7 % (JO-1 = 100%)
[4]
  Inhibition of attachment in the presence of dimeric knob (JO-1 = 100%): 97.3 % (JO-1 = 100%)

B12: dimeric Ad3 fiber knob mutant F265L (ligand)
chain: MKVSALKEKVSALKEKVSALKEKVSALKEKVSALKEGSGGGSGGGSGGGSNSIALKNNTLWTGPKPEANCIIEYGKQNPDSKLTLILVKNGGIVNGYVTLMGASDYVNTLFKNKNVSINVELYFDATGHILPDSSSLKTDLELKYKQTADFSARGFMPSTTAYPFVLPNAGTHNENYIFGQCYYKASDGALLPLEVTVMLNKRLPDSRTSYVMTFLWSLNAGLAPETTQATLITSPFTFSYIREDD
notes: JO-1 format
[3]
  Inhibition of infection in the presence of dimeric knob (JO-1 = 100%): 17.6 % (JO-1 = 100%)
[4]
  Inhibition of attachment in the presence of dimeric knob (JO-1 = 100%): 55.6 % (JO-1 = 100%)

B13: Ad3-S5/Kn (ligand, human adenovirus serotype 3, UniProt P04501 60-319, looked up)
chain: SLQLKVGSGLTVDTTDGSLEENIKVNTPLTKSNHSINLPIGNGLQIEQNKLCSKLGNGLTFDSSNSIALKNNTLWTGPKPEANCIIEYGKQNPDSKLTLILVKNGGIVNGYVTLMGASDYVNTLFKNKNVSINVELYFDATGHILPDSSSLKTDLELKYKQTADFSARGFMPSTTAYPFVLPNAGTHNENYIFGQCYYKASDGALFPLEVTVMLNKRLPDSRTSYVMTFLWSLNAGLAPETTQATLITSPFTFSYIREDD
notes: domain: fiber knob with shaft motifs (S5)
Soluble CD46
  binding result: no binding
